Source: patent US20150023958A1 (SAMSUNG ELECTRONICS, published 2015)

T1: human Ang2 (human, UniProt O15123 19-496)
T1 construct: Bought protein (R&D Systems); also called A2; angiopoietin 2
T1 sequence (looked up): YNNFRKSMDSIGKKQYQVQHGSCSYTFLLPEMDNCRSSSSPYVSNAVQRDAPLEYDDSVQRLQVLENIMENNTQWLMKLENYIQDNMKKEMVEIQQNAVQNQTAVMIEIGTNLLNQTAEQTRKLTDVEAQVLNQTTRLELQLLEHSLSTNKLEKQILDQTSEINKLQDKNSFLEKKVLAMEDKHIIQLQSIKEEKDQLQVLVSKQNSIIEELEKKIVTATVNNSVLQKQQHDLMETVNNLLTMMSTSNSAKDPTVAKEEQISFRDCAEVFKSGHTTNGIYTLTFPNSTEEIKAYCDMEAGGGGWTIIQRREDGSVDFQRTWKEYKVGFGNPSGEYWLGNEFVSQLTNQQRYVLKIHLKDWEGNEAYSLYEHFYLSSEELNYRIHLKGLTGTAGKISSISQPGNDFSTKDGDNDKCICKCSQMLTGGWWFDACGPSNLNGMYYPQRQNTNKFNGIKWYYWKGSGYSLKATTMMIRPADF

T2: human VEGF-D (human, UniProt O43915 93-201, limits assumed)
T2 construct: Bought protein (R&D Systems); also called Vascular endothelial growth factor D
T2 sequence (looked up): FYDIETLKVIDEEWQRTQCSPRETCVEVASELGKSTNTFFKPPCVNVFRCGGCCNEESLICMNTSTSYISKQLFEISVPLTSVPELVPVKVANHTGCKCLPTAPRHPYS

T3: human VEGF-C (human, UniProt P49767 103-227)
T3 construct: Bought protein (R&D Systems); also called VC; Vascular endothelial growth factor C
T3 sequence (looked up): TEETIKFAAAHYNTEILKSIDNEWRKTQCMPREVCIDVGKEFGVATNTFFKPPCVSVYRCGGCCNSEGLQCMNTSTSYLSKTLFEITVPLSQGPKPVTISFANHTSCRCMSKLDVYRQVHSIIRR

B1: V-body (Fc fusion)
chain: ASDYRSPFIASVSDQHGVVYITENKNKTVVIPCLGSISNLNVSLCARYPEKRFVPDGNRISWDSKKGFTIPSYMISYAGMVFCEAKINDESYQSIMYIVVVVGEQPFINKPDTLLVNRKDAMWVPCLVSIPGLNVTLRSQSSVLWPDGQEVVWDDRRGMLVSTPLLHDALYLQCETTWGDQDFLSNPFLVHITG
notes: Expressed in 293-F cells and purified on MabSelect SuRe; also called fusion polypeptide V-body; R2-2/R3-2-Fc; not shown: Fc fragment of human IgG1, fused to the C-terminus through the pFUSE-hIgG1-Fc1 vector (InvivoGen)
B2: AV-body 1 (Fc fusion)
chain: AMDLILINSLPLVSDAETSLTCIASGWRPHEPITIGRDFEALMNQHQDPLEVTQDVTREWAKKVVWKREKASKINGAYFCEGRVRGEAIRIRTMKMRQQASFLPATLTMTVDKGDNVNISFKKVLIKEEDAVIYKNGSFIHSVPRHEVPDILEVHLPHAQPQDAGVYSARYIGGNLFTSAFTRLIVRRCEAQKWGPECNHLCTACMNNGVCHEDTGECICPPGFMGRTCEKACELHTFGRTCKERCSGQEGCKSYVFCLPDPYGCSCATGWKGLQCNEACHPGFYGPDCKLRCSCNNGEMCDRFQGCLCSPGWQGLQCEREGIEFSPFIASVSDQHGVVYITENKNKTVVIPCLGSISNLNVSLCARYPEKRFVPDGNRISWDSKKGFTIPSYMISYAGMVFCEAKINDESYQSIMYIVVVVGYRIYDVVLSPSHGIELSVGEKLVLNCTARTELNVGIDFNWEYPSSKHQHKKLVNRDLKTQSGSEMKKFLSTLTIDGVTRSDQGLYTCAASSGLMTKKNSTFVRVHE
notes: also called fusion polypeptide AV-body 1; Tie2-ECD/R2-2/R2-3-Fc; not shown: Fc fragment of human IgG1, fused to the C-terminus through the pFUSE-hIgG1-Fc1 vector (InvivoGen)
B3: AV-body 2 (Fc fusion)
chain: AMDLILINSLPLVSDAETSLTCIASGWRPHEPITIGRDFEALMNQHQDPLEVTQDVTREWAKKVVWKREKASKINGAYFCEGRVRGEAIRIRTMKMRQQASFLPATLTMTVDKGDNVNISFKKVLIKEEDAVIYKNGSFIHSVPRHEVPDILEVHLPHAQPQDAGVYSARYIGGNLFTSAFTRLIVRRCEAQKWGPECNHLCTACMNNGVCHEDTGECICPPGFMGRTCEKACELHTFGRTCKERCSGQEGCKSYVFCLPDPYGCSCATGWKGLQCNEACHPGFYGPDCKLRCSCNNGEMCDRFQGCLCSPGWQGLQCEREGIEFMQSKVLLAVALWLCVETRAASDYRSPFIASVSDQHGVVYITENKNKTVVIPCLGSISNLNVSLCARYPEKRFVPDGNRISWDSKKGFTIPSYMISYAGMVFCEAKINDESYQSIMYIVVVVGEQPFINKPDTLLVNRKDAMWVPCLVSIPGLNVTLRSQSSVLWPDGQEVVWDDRRGMLVSTPLLHDALYLQCETTWGDQDFLSNPFLVHITG
notes: also called fusion polypeptide AV-body 2; Tie2-ECD/R2-2/R3-2-Fc; not shown: Fc fragment of human IgG1, fused to the C-terminus through the pFUSE-hIgG1-Fc1 vector (InvivoGen)

Key:
human Ang2 = target: T1, human Ang2; experiment: ELISA, Ang2 coated on plate, anti-human Fc-HRP detection
Experimental: (§1) To measure binding capacities of fusion polypeptides to each target, ELISA (Enzyme-linked immunosorbent assay) was conducted. On a 96-well MaxiSorp™ flat-bottom plate (Nunc), 50 ul of human VEGF-C, VEGF-D, or Ang2 (R&D Systems) were coated in the concentration of […]. And then, the plate was washed 5 times with PBS containing 0.05% Tween-20, and then, blocked with PBS containing 1% BSA at room temperature for 2 hours. 50 ul of each fusion polypeptide was put in each well according to concentration, and then, the plate was incubated at room temperature for 2 hours. And then, it was washed 5 times with PBS containing 0.05% Tween-20, and then, HRP-conjugated anti-human Fc antibody (Sigma) was diluted to 1:5,000 with PBS containing 1% BSA and reacted at room temperature for 1 hour, and washed 5 times with PBS containing 0.1% Tween-20. Finally, to each well of the plate, 50 μl of TMB substrate (SIGMA) was added to cause color reaction, and then, the reaction was stopped with 50 μl of a 5N H₂SO₄ solution, and OD450 value was measured on a plate reader (Molecular Devices). Thereby, binding capacities (KD) of the manufactured fusion polypeptides to human VEGF-C, VEGF-D or Ang2 protein were measured.

human VEGF-D = target: T2, human VEGF-D; experiment: ELISA, VEGF-D coated on plate, anti-human Fc-HRP detection
Experimental: as §1

human VEGF-C = target: T3, human VEGF-C; experiment: ELISA, VEGF-C coated on plate, anti-human Fc-HRP detection
Experimental: as §1

Row | Binder | binding result (human Ang2) | Kd (human VEGF-D) | Kd (human VEGF-C) | Kd (human Ang2)
1 | B1 | no binding | 100 nM | 100 nM | 
2 | B2 |  | 170 nM | 130 nM | 45 nM
3 | B3 |  | 42 nM | 34 nM | 20 nM
